Measured values: patent publication US20220340678A1

Tests used:
[1] = target: human uPAR expressed on HEK293 cells (human), Q03405; assay: flow cytometry, HEK293 cells expressing human uPAR, 100 nM uPA present
[2] = target: biotinylated human uPAR (human), Q03405; assay: BLI (Octet) on biotinylated human uPAR; row 'None': no first antibody
[3] = target: biotinylated human uPAR (human), Q03405; assay: BLI (Octet) competition on biotinylated human uPAR; competitor (first antibody): ATN-368 (ATN-658)
[4] = target: biotinylated human uPAR (human), Q03405; assay: BLI (Octet) competition on biotinylated human uPAR; competitor (first antibody): M5
[5] = target: biotinylated human uPAR (human), Q03405; assay: BLI (Octet) competition on biotinylated human uPAR; competitor (first antibody): M1

- EC50 [1]: 3.99 nM
- response in competition assay [2]: 0.33
- response in competition assay [3]: -0.0274
- response in competition assay [4]: 0.387
- response in competition assay [5]: -0.0144
B1: ATN-658 (antibody)
chain 1: not shown
chain 2: VQLQESGPELVKTGASVKISCKASGYSFTSYYMHWVKQSHGKSLEWIGEINPYNGGASYNQKIKGRATFTVDTSSRTAYMQFNSLTSEDSAVYYCARSIYGHSVLDYWGQGTTVTVS
modifications: not checked
